Measurements published in patent publication US9144594B2, “Cathepsin L mediated diseases and associated methods and products” (University of Miami, priority 2005, dated 2015).
Numbering of substitutions follows the chain as printed. Names and notes keep the numbering of the source. “Also recorded” adds a separate entry of the source.

Experiments:
[1] = tested on: podocyte FP; assay: Podocyte foot process architecture by electron microscopy after gene delivery; format: in vivo, mouse; details: gene delivery into wildtype mice
Description: Next it was explored whether gene delivery of dynamin mutants dynR725A and dynL356Q, G358V into mice can be expressed in podocytes and if this procedure can affect podocyte FP architecture and function. First, we needed to establish a safe and reliable detection system of transferred gene expression in podocytes. Therefore we analyzed which dynamin isoforms are expressed in podocytes by RT-PCR. Podocytes express mainly dynamin 2 and little dynamin 3 but no dynamin 1 (FIG. 5A). Gene-transfer CMV promotor driven dynamin 1 constructs were used because neuronal dynamin protein is normally not expressed in podocytes and could be easily tracked by a specific monoclonal dynamin 1 antibody (FIG. 5B). […] Monoclonal dynamin antibodies MAB 5402 […] were used, which predominantly recognize dynamin 1 (FIG. 5B). Labeling of glomerular sections with MAB 5402 detected some minimal background labeling of dynamin, representing endogenous dynamin 2 (FIG. 5C). The gene transfer of dynamin 1 expression vectors led to a strong expression of dynamin 1 in glomerular cells including podocytes (FIG. 5D). Some of this labeling was also detected in podocytes, which are marked positively by synaptopodin staining, resulting in a yellow staining pattern (FIG. 5E).

[2] = tested on: podocytes; assay: Podocyte motility, modified Boyden chamber assay; format: cell-based, mouse; details: for podocyte motility, in words: adenoviral overexpression
Description: (§1) This study examined the role of dynamin in actin dynamics of podocytes. An adenoviral expression system was utilized to obtain expression of various dynamin mutants with more than 90% infection efficiency in cultured differentiated mouse podocytes and analyzed the organization of the actin cytoskeleton, their migratory and endocytotic behavior (FIG. 1). […] This type of actin rearrangement in cultured podocytes is resembling actin rearrangement in damaged podocytes during proteinuria in situ (Smoyer and Mundel, 1998). […] Thus, the consequence on actin dynamics in podocytes was examined when dynamin is hyperactive by expressing known dominant activators, dynK694A and dynR725A (SEQ ID NO.4). Both mutants are predicted to live longer in the GTP-bound form. […] To further examine this surprising phenotype in a biological context, motility assays were performed next using a modified Boyden Chamber assay.
Podocyte migration was analyzed using a 12-well chemotaxis chamber (Neuro Probe) according to the manufacturer's protocol. In brief, differentiated podocytes were treated with 50 μg/ml of LPS or PAN for 24 h and then harvested for the migration assay. Bottom plates were coated with type-I collagen, while upper plates were loaded with equal number of cells (5×10^4) suspended in medium. The chamber was incubated at 37° C. for 4 h before unassembled. The membrane was then taken out, processed and finally stained with diamidino phenylindole (DAPI) (Vector). The average number of migrated cells was counted in four fields in six independent experiments.
(§2) Podocytes were grown under non-permissive conditions to 70% confluence. Cells were washed twice with 1×PBS and infected with 1.2 ml of serum-free DMEM media containing 100 μl transactivator virus, 100 μl virus expressing dyn1 or dyn2. After 2 h of infection at 37° C., media containing virus was replaced with full DMEM. If cells were treated with LPS or PAN, 50 μg/ml of LPS or 50 μg/ml PAN was added at this point. 18-24 h post-infection, cells were detached using trypsin and processed either for subcellular fractionation or tested in the motility assays as described in (Reiser et al., J Biol Chem 279, 34827-34832 (2004)). When stated, 20 μM of Z-FF-FMK CatL specific inhibitor (Calbiochem, San Diego, Calif.) was added simultaneously with addition of LPS.

[3] = tested on: podocytes; assay: Actin stress fiber staining in cultured podocytes; format: cell-based, mouse; details: for actin stress fibers, in words: overexpression in cultured podocytes
Description: as §1
Since podocyte FP effacement is primarily driven by the rearrangement of the actin cytoskeleton (Asanuma et al., 2006), actin morphology was examined in cultured podocytes expressing different dynamin mutants. Podocytes were infected with various dynamin constructs using an adenoviral expression system that enables greater than 90% efficiency of infection. The experiments were performed using dyn1 (FIG. 22) as well as dyn2, with identical results. […] Thus, treatments which abolish actin stress fibers in cultured podocytes cause proteinuria in mice. […] Consistent with this notion, the deleterious effects of LPS (which reduces stress fibers) on kidney function were ameliorated by expression of dynR725A (which induces stress fibers).
as §2

[4] = tested on: podocytes; assay: Rhodamine-transferrin uptake (endocytosis) in podocytes; format: cell-based, mouse; details: overexpression in podocytes
Procedure: Since dynamin is known to play a major role in regulation of clathrin-mediated endocytosis, it appeared possible that the observed actin phenotypes as described above were indirect consequence of changes in endocytosis. […] While LPS treatment of cells overexpressing dynWT had no effect on endocytosis of rhodamine-transferrin (FIG. 1D), it did induce cell motility and changes in actin cytoskeleton.
Conditionally immortalized mouse podocyte cell lines were grown as described previously (Mundel et al., Exp Cell Res 236; 248-258; (1997)). Dynamin antibodies: Anti-dynamin (hudy 1) monoclonal antibody was purchased from Upstate Technology (Lake Placid, N.Y.); mouse anti-dyn1 monoclonal antibody (MAB 5402) was from Chemicon (Temecula, Calif.); mouse anti-dyn1 monoclonal antibody (VAM-SVO41) was from StressGene (Victoria, Canada). The rabbit antiserum against mouse CatL was used as described (Ishidoh and Kominami, 1994). For immunogold and immunocytochemistry analysis of CatL, we used a rabbit polyclonal antibody against CatL as described before (Ahn et al., Traffic 3, 147-159 (2002)). CatL −/− fibroblasts were maintained as described previously (Hsieh et al., J Immunol 168, 2618-2625 (2002)). Stable CatL knock-down cell lines were generated with a vector-based siRNA directed against CatL (target sequence 5′-GTGGACTGTTCTCACGCT-3; SEQ ID NO.32). Quantitative PCR was performed on a Applied Biosystems 7300 Real-Time PCR System. Fold-expression changes were calculated using the comparative CT method for relative quantitation with the equation 2^−ΔΔCT. Protein expression levels for dynamin and CatL were calculated using densitometric analysis with Kodak imaging software. Statistical significance was assessed with the unpaired t-test with Welch's correction. Transfections with CatL constructs were performed using Lipofectamine 2000 (Invitrogen) following manufacturer's instructions. Immunocytochemical analysis of cultured podocytes was done as described (Reiser et al., J Biol Chem 279, 34827-34832 (2004)). Immunoperoxidase labeling of human tissue was done on formalin fixed kidney biopsies embedded in paraffin. Transmission electron microscopy (TEM) and immunoelectron microscopy (IEM) were performed as described (Regele et al., J Am Soc Nephrol 11, 403-412 (2000)). Subcellular fractionation of cultured cells was performed as described (Damke et al., J Cell Biol 127, 915-934 (1994)). Internalization of rhodamine-transferrin (R-Tfn) was performed using 20 μg/ml R-Tfn in PBS containing 1 mM CaCl2, 1 mM MgCl2, 5 mM glucose, and 0.2% BSA for 10 min at 37° C.

Molecule: dynWT: wild type dynamin overexpressed by adenovirus or delivered as dynamin 1 cDNA
- podocyte FP architecture, in words [1]: did not result in changes of podocyte FP architecture
- podocyte motility, in words [2]: did not change podocyte motility
- actin stress fibers, in words [3]: did not dramatically alter stress fiber pattern; also recorded: did not significantly alter the F-actin staining pattern
- transferrin uptake (endocytosis), in words [4]: did not enhance the overall transferring uptake

B1: dynK44A: dominant-negative dynamin mutant that cannot bind GTP (protein, UniProt Q05193 1-864, looked up, variant K44A)
Dynamin-1: MGNRGMEDLIPLVNRLQDAFSAIGQNADLDLPQIAVVGGQSAGASSVLENFVGRDFLPRGSGIVTRRPLVLQLVNATTEYAEFLHCKGKKFTDFEEVRLEIEAETDRVTGTNKGISPVPINLRVYSPHVLNLTLVDLPGMTKVPVGDQPPDIEFQIRDMLMQFVTKENCLILAVSPANSDLANSDALKVAKEVDPQGQRTIGVITKLDLMDEGTDARDVLENKLLPLRRGYIGVVNRSQKDIDGKKDITAALAAERKFFLSHPSYRHLADRMGTPYLQKVLNQQLTNHIRDTLPGLRNKLQSQLLSIEKEVEEYKNFRPDDPARKTKALLQMVQQFAVDFEKRIEGSGDQIDTYELSGGARINRIFHERFPFELVKMEFDEKELRREISYAIKNIHGIRTGLFTPDMAFETIVKKQVKKIREPCLKCVDMVISELISTVRQCTKKLQQYPRLREEMERIVTTHIREREGRTKEQVMLLIDIELAYMNTNHEDFIGFANAQQRSNQMNKKKTSGNQDEILVIRKGWLTINNIGIMKGGSKEYWFVLTAENLSWYKDDEEKEKKYMLSVDNLKLRDVEKGFMSSKHIFALFNTEQRNVYKDYRQLELACETQEEVDSWKASFLRAGVYPERVGDKEKASETEENGSDSFMHSMDPQLERQVETIRNLVDSYMAIVNKTVRDLMPKTIMHLMINNTKEFIFSELLANLYSCGDQNTLMEESAEQAQRRDEMLRMYHALKEALSIIGDINTTTVSTPMPPPVDDSWLQVQSVPAGRRSPTSSPTPQRRAPAVPPARPGSRGPAPGPPPAGSALGGAPPVPSRPGASPDPFGPPPQVPSRPNRAPPGVPSRSGQASPSRPESPRPPFDL
- podocyte FP architecture, in words [1]: induced a severe rearrangement of the actin based podocyte FPs
- podocyte motility, in words [2]: dramatically increased cell motility
- actin stress fibers, in words [3]: loss of stress fibers; also recorded: abolished stress fibers
- transferrin uptake (endocytosis), in words [4]: completely inhibited transferring uptake

B2: dynK694A: dominant activator dynamin mutant impaired in self-assembly (protein)
chain: B1 Dynamin-1 with A44K, K694A
- podocyte motility, in words [2]: did not change podocyte motility
- actin stress fibers, in words [3]: did not dramatically change actin stress fibers
- transferrin uptake (endocytosis), in words [4]: lead to increase in transferring uptake

B3: dynR725A: dynamin mutant (SEQ ID NO.4) with impaired GTP hydrolysis capacity (protein, listed as Homo sapiens)
chain: B1 Dynamin-1 with A44K, R725A
- podocyte FP architecture, in words [1]: resulted in partial FP effacement
- LPS-induced increase in podocyte motility, in words ([2]; LPS-treated podocytes): blocked the LPS-induced increase in podocyte motility
- podocyte motility, in words [2]: significantly decreased podocyte motility; also recorded: decreasing motility
- loss of stress fibers under LPS or PAN, in words ([3]; LPS and PAN treatment): prevented the loss of actin stress fibers; also recorded: inhibited the ability of LPS to reduce stress fibers
- actin stress fibers, in words [3]: significantly induced stress fibers formation; also recorded: decreasing cortical actin and inducing stress fibers
- transferrin uptake (endocytosis), in words [4]: exhibited the wild-type levels of endocytosis

B4: dynL356Q, G358V: dynamin mutant (SEQ ID NO.3) not recognized by cathepsin L; ELSGGA mutated to EQSVGA (protein, listed as Homo sapiens)
chain: B1 Dynamin-1 with A44K, L356Q, G358V
- podocyte FP architecture, in words [1]: did not show any significant changes in podocyte FP structure
- actin stress fibers, in words [3]: did not significantly alter the F-actin staining pattern
